# Laboratory results published in PMC2756588.
# T1: Fus1, P11710
# T1 sequence (P11710 432-512, looked up): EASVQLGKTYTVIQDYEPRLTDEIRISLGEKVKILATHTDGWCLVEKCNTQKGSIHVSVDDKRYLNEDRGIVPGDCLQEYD
# T2: Boi1, P38041
# T2 sequence (P38041 1-86, looked up): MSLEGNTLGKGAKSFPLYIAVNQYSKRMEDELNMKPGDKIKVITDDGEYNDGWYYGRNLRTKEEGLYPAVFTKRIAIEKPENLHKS
# T3: Bbc1, P47068
# T3 sequence (P47068 1-78, looked up): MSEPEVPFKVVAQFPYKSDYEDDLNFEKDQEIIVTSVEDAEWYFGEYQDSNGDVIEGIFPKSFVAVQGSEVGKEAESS
# T4: Bud14, P27637
# T4 sequence (P27637 247-328, looked up): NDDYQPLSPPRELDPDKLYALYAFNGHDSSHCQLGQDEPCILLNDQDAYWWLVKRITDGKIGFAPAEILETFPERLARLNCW
# T5: Bzz1-2, P38822
# T5 sequence (P38822 568-633, looked up): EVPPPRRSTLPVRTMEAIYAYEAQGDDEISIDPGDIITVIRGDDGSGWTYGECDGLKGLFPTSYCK
# T6: Sla1-2, P32790
# T6 sequence (P32790 60-140, looked up): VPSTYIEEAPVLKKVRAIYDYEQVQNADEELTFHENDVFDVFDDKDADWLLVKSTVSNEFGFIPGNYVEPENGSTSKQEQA
# T7: Sla1-3, P32790
# T7 sequence (P32790 344-424, looked up): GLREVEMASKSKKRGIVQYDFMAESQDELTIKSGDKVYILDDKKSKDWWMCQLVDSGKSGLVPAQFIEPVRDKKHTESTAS
# T8: Cyk3, Q07533
# T8 sequence (Q07533 1-83, looked up): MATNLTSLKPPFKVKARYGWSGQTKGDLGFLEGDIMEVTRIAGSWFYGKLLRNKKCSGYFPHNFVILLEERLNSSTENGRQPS
# T9: Cdc25, P04821
# T9 sequence (P04821 50-136, looked up): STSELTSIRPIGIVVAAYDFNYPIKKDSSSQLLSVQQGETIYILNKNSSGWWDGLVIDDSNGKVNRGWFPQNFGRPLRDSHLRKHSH
# T10: Hse1, P38753
# T10 sequence (P38753 208-285, looked up): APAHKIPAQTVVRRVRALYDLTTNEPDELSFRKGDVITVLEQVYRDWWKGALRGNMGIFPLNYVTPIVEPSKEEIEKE
# T11: Bzz1-1, P38822
# T11 sequence (P38822 478-572, looked up): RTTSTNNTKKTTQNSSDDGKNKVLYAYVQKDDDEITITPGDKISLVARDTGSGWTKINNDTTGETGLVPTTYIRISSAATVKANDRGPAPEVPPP
# T12: Hof1, Q05080
# T12 sequence (Q05080 590-669, looked up): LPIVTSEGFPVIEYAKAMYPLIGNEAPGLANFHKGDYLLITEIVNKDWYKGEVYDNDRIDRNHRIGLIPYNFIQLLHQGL
# T13: Myo5, Q04439
# T13 sequence (Q04439 1072-1160, looked up): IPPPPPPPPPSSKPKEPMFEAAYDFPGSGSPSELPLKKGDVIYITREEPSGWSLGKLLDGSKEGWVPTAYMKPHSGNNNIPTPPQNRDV
# T14: Pex13, P80667
# T14 sequence (P80667 295-386, looked up): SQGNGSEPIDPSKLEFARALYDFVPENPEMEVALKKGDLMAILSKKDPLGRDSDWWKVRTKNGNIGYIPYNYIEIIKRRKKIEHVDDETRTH
# T15: Lsb4, P32793
# T15 sequence (P32793 402-468, looked up): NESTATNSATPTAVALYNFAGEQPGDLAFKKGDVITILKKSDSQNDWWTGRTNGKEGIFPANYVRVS
# T16: Lsb3, P43603
# T16 sequence (P43603 385-451, looked up): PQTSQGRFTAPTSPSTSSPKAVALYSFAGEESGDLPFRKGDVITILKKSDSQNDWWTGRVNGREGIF
# T17: Pin3, Q06449
# T17 sequence (Q06449 53-122, looked up): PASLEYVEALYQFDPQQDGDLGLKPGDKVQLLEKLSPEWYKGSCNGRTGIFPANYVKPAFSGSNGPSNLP
# T18: Boi2, P39969
# T18 sequence (P39969 32-116, looked up): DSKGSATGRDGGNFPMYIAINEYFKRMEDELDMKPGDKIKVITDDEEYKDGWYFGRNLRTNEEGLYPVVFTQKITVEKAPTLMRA
# T19: Abp1, P15891
# T19 sequence (P15891 535-592, looked up): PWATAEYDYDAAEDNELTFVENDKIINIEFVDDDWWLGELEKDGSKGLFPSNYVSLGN
# T20: Lsb1, P53281
# T20 sequence (P53281 45-122, looked up): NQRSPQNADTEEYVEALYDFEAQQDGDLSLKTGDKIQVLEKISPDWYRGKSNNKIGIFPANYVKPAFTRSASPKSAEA
# T21: Nbp2, Q12163
# T21 sequence (Q12163 103-180, looked up): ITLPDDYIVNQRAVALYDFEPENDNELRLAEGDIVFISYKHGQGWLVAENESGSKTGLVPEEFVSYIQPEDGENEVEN
# Experiments:
# Test in all cases: SPOT array
# Fus1, P11710 = molecular target: T1, Fus1, P11710; details: median of control spots 1200
# Boi1, P38041 = molecular target: T2, Boi1, P38041; details: median of control spots 1162
# Bbc1, P47068 = molecular target: T3, Bbc1, P47068; details: median of control spots 796
# Bud14, P27637 = molecular target: T4, Bud14, P27637; details: median of control spots 956
# Bzz1-2, P38822 = molecular target: T5, Bzz1-2, P38822; details: median of control spots 4538
# Sla1-2, P32790 = molecular target: T6, Sla1-2, P32790; details: median of control spots 712
# Sla1-3, P32790 = molecular target: T7, Sla1-3, P32790; details: median of control spots 5475
# Cyk3, Q07533 = molecular target: T8, Cyk3, Q07533; details: median of control spots 1451
# Cdc25, P04821 = molecular target: T9, Cdc25, P04821; details: median of control spots 969
# Hse1, P38753 = molecular target: T10, Hse1, P38753; details: median of control spots 1727
# Bem1-2, P29366 = details: median of control spots 4347
# Bzz1-1, P38822 = molecular target: T11, Bzz1-1, P38822; details: median of control spots 4446
# Hof1, Q05080 = molecular target: T12, Hof1, Q05080; details: median of control spots 4086
# Myo5, Q04439 = molecular target: T13, Myo5, Q04439; details: median of control spots 471
# Sho1, P40073 = details: median of control spots 1148
# Rvs167, P39743 = details: median of control spots 2707
# Pex13, P80667 = molecular target: T14, Pex13, P80667; details: median of control spots 1341
# Myo3, P36006 = details: median of control spots 468
# Lsb4, P32793 = molecular target: T15, Lsb4, P32793; details: median of control spots 397
# Bem1-1, P29366 = details: median of control spots 4282
# Lsb3, P43603 = molecular target: T16, Lsb3, P43603; details: median of control spots 406
# Pin3, Q06449 = molecular target: T17, Pin3, Q06449; details: median of control spots 2171
# Boi2, P39969 = molecular target: T18, Boi2, P39969; details: median of control spots 1161
# Abp1, P15891 = molecular target: T19, Abp1, P15891; details: median of control spots 935
# Lsb1, P53281 = molecular target: T20, Lsb1, P53281; details: median of control spots 388
# Nbp2, Q12163 = molecular target: T21, Nbp2, Q12163; details: median of control spots 357
# GST = details: median of control spots 978
# Bem1-2, P29366, sequence (P29366 139-227): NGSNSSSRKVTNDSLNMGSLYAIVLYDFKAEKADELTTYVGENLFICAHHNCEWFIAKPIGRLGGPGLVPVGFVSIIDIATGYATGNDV
# Sho1, P40073, sequence (P40073 287-367): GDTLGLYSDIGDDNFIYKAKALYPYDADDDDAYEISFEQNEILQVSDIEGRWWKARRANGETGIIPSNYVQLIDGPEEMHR
# Rvs167, P39743, sequence (P39743 419-482): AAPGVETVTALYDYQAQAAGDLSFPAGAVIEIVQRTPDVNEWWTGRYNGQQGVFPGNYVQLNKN
# Bem1-1, P29366, sequence (P29366 55-141): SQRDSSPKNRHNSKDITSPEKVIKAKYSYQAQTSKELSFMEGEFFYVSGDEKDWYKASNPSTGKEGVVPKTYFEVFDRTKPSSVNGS
"SPOT intensity (Fus1, P11710)","SPOT intensity (Boi1, P38041)","SPOT intensity (Bbc1, P47068)","SPOT intensity (Bud14, P27637)","SPOT intensity (Bzz1-2, P38822)","SPOT intensity (Sla1-2, P32790)","SPOT intensity (Sla1-3, P32790)","SPOT intensity (Cyk3, Q07533)","SPOT intensity (Cdc25, P04821)","SPOT intensity (Hse1, P38753)","SPOT intensity (Bem1-2, P29366)","SPOT intensity (Bzz1-1, P38822)","SPOT intensity (Hof1, Q05080)","SPOT intensity (Myo5, Q04439)","SPOT intensity (Sho1, P40073)","SPOT intensity (Rvs167, P39743)","SPOT intensity (Pex13, P80667)","SPOT intensity (Myo3, P36006)","SPOT intensity (Lsb4, P32793)","SPOT intensity (Bem1-1, P29366)",Binder,also measured
0,0,0,0,0,2,0,0,1,0,0,0,0,29,7,6,95,34,27,0,QFDLKMPSKPIHNLK,"SPOT intensity (Lsb3, P43603): 9; SPOT intensity (Pin3, Q06449): 68; SPOT intensity (Boi2, P39969): 2; SPOT intensity (Abp1, P15891): 41; SPOT intensity (Lsb1, P53281): 1; SPOT intensity (Nbp2, Q12163): 0; SPOT intensity (GST): 0"
1,0,5,0,0,0,0,0,0,0,0,0,1570,0,66,944,490,0,1310,0,VQQDSLPKLPFRSWG,"SPOT intensity (Lsb3, P43603): 646; SPOT intensity (Pin3, Q06449): 7; SPOT intensity (Boi2, P39969): 2; SPOT intensity (Abp1, P15891): 0; SPOT intensity (Lsb1, P53281): 399; SPOT intensity (Nbp2, Q12163): 0; SPOT intensity (GST): 0"
100,7,44,5,9,10,13,0,209,25,0,0,24,27,304,2,73,77,63,1,FLIKFTPKFPQSIDH,"SPOT intensity (Lsb3, P43603): 32; SPOT intensity (Pin3, Q06449): 41; SPOT intensity (Boi2, P39969): 0; SPOT intensity (Abp1, P15891): 417; SPOT intensity (Lsb1, P53281): 46; SPOT intensity (Nbp2, Q12163): 418; SPOT intensity (GST): 0"
430,152,663,29,109,52,124,25,490,113,0,3,25,69,718,6,127,164,207,0,VGFRLALKFPSRITG,"SPOT intensity (Lsb3, P43603): 166; SPOT intensity (Pin3, Q06449): 150; SPOT intensity (Boi2, P39969): 70; SPOT intensity (Abp1, P15891): 489; SPOT intensity (Lsb1, P53281): 452; SPOT intensity (Nbp2, Q12163): 1100; SPOT intensity (GST): 0"
42,6,15,1,2,3,3,0,59,2,13,1,5,0,5,0,10,0,0,2,FVLRYYILIPHEQWD,"SPOT intensity (Lsb3, P43603): 0; SPOT intensity (Pin3, Q06449): 9; SPOT intensity (Boi2, P39969): 1; SPOT intensity (Abp1, P15891): 0; SPOT intensity (Lsb1, P53281): 2; SPOT intensity (Nbp2, Q12163): 47; SPOT intensity (GST): 0"
0,0,13,0,0,0,0,0,1,1,2,1,63,0,7,1340,536,66,1220,1,APERAVPILPPRNNV,"SPOT intensity (Lsb3, P43603): 771; SPOT intensity (Pin3, Q06449): 13; SPOT intensity (Boi2, P39969): 1; SPOT intensity (Abp1, P15891): 4; SPOT intensity (Lsb1, P53281): 290; SPOT intensity (Nbp2, Q12163): 0; SPOT intensity (GST): 0"
